Test results as given in the supplement of paper PMC10724198.
± gives the standard deviation of the averaged measurements.

System: Saccharomyces cerevisiae
Experiment: protein stability index of tFT-peptide fusion (C-terminal peptide) (PSI (0-1 scale)); higher = more stable (slower turnover)
Settings: temperature: 30 C
Procedure: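 MPS profiling in S. cerevisiae of the yeast C-terminome library: the last 12 aa of each annotated ORF are fused to the C-terminus of a sfGFP-mCherry timer, after a GGGS linker. Cells are FACS-sorted into 8 mCherry/sfGFP bins and deep-sequenced. PSI runs from 0 (unstable) to 1 (stable); wild type and das1Δ backgrounds, two technical replicates each.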

[1] = genetic background: das1 deletion

Sequence | protein stability index [1] | protein stability index (genetic background: wild type)
EIVGRYVVETSK [ADH5 C-terminal 12 aa] | 0.678 ± 0.028 | 0.6821 ± 0.0047
GWLQDKHFEKYL [YOR338W C-terminal 12 aa] | 0.705 ± 0.022 | 0.447 ± 0.03
ANCNTADCLEDH [COT1 C-terminal 12 aa] | 0.6866 ± 0.0051 | 0.708 ± 0.012
RYFCHLFRCSII [YDL022C-A C-terminal 12 aa] | 0.722 ± 0.04 | 0.654 ± 0.021
GGGVLQLISYIL [YSY6 C-terminal 12 aa] | 0.706 ± 0.0057 | 0.656 ± 0.015
GEDTGPTVEEVD [SSA3 C-terminal 12 aa] | 0.682 ± 0.013 | 0.684 ± 0.015
ENLVKQEAINGS [YAF9 C-terminal 12 aa] | 0.6823 ± 0.0044 | 0.6834 ± 0.0042
GMYSRAYETHTL [ERG7 C-terminal 12 aa] | 0.7 ± 0.012 | 0.696 ± 0.022
VLGFFKRRSMKI [FRK1 C-terminal 12 aa] | 0.72 ± 0.014 | 0.678 ± 0.018
KKKRNKNKKAGK [ETP1 C-terminal 12 aa] | 0.691 ± 0.023 | 0.698 ± 0.014
DLESLTAKLIQG [HCA4 C-terminal 12 aa] | 0.7 ± 0.022 | 0.67282 ± 0.00041
FFRLGWSTWLHY [YOR029W C-terminal 12 aa] | 0.502 ± 0.01 | 0.351 ± 0.0046
FVLSISFRQEQT [YER172C-A C-terminal 12 aa] | 0.577 ± 0.042 | 0.591 ± 0.025
GIHPPEPIAAAA [KTI11 C-terminal 12 aa] | 0.3 ± 0.031 | 0.357 ± 0.017
VNFDIEEEQEGQ [JJJ3 C-terminal 12 aa] | 0.685 ± 0.011 | 0.791 ± 0.071
VENTTVDFNYDM [YLR179C C-terminal 12 aa] | 0.69 ± 0.016 | 0.681 ± 0.03
PIICASVTFLPT [YAL056C-A C-terminal 12 aa] | 0.6572 ± 0.00082 | 0.629 ± 0.026
AKYSKKKNNKNK [DEG1 C-terminal 12 aa] | 0.689 ± 0.043 | 0.668 ± 0.021
FKVASIANAQVR [ARC1 C-terminal 12 aa] | 0.689 ± 0.0093 | 0.696 ± 0.027
IFVYPLFLLSTF [YEL053W-A C-terminal 12 aa] | 0.482 ± 0.051 | 0.335 ± 0.0099
SSTTALDALNKE [TGL1 C-terminal 12 aa] | 0.696 ± 0.0083 | 0.684 ± 0.048

Sequence | protein stability index [1] | protein stability index (genetic background: wild type)
ALDAVDDAIILD [GET1 C-terminal 12 aa] | 0.716 ± 0.0098 | 0.659 ± 0.021
HELSKDFSNLGI [NAM7 C-terminal 12 aa] | 0.7008 ± 0.00089 | 0.683 ± 0.038
LIGGNTNDGLSK [CHA4 C-terminal 12 aa] | 0.683 ± 0.023 | 0.722 ± 0.029
AWSYLARQVLYY [YGR176W C-terminal 12 aa] | 0.6986 ± 0.0046 | 0.688 ± 0.032
AVNTLLWQEQYS [YDR042C C-terminal 12 aa] | 0.739 ± 0.017 | 0.751 ± 0.13
EIKEMLVTLINK [SRL2 C-terminal 12 aa] | 0.6725 ± 0.002 | 0.652 ± 0.028
IKCKMPWSSPRQ [YOR238W C-terminal 12 aa] | 0.705 ± 0.03 | 0.744 ± 0.032
KQKDKEKNALLL [YBR113W C-terminal 12 aa] | 0.689 ± 0.016 | 0.6802 ± 0.0029
EQNAALGQGLGR [TIM9 C-terminal 12 aa] | 0.70792 ± 0.00034 | 0.692 ± 0.0086
SQLLNLLQDLDT [ENV7 C-terminal 12 aa] | 0.696 ± 0.02 | 0.722 ± 0.011
PILSQEVDRWRL [GAC1 C-terminal 12 aa] | 0.732 ± 0.011 | 0.744 ± 0.018
KHVMMDMQQPSQ [MRPS17 C-terminal 12 aa] | 0.699 ± 0.022 | 0.674 ± 0.027
PDYKSNTQILVL [YOL155W-A C-terminal 12 aa] | 0.56446 ± 0.00018 | 0.584 ± 0.029
DDQDAISNQEKK [EIS1 C-terminal 12 aa] | 0.712 ± 0.057 | 0.701 ± 0.038
RRVKSLKTSKKH [PAL2 C-terminal 12 aa] | 0.72 ± 0.017 | 0.686 ± 0.0093
VVYYHMVCKNIT [YHR125W C-terminal 12 aa] | 0.5662 ± 0.0017 | 0.573 ± 0.038
RQMTSSFFLVFA [YDR118W-A C-terminal 12 aa] | 0.51187 ± 0.00022 | 0.508 ± 0.017
SITLDDLENIFN [GDS1 C-terminal 12 aa] | 0.735 ± 0.026 | 0.711 ± 0.021
QDGIKEAASALA [INO80 C-terminal 12 aa] | 0.6794 ± 0.0025 | 0.665 ± 0.04
FRHNRSNKKLGC [GEX1 C-terminal 12 aa] | 0.725 ± 0.025 | 0.7365 ± 0.0018
